{"source": "paper PMC7809101", "about": "“Fetal bovine serum albumin inhibits antimicrobial peptide activity and binds drug only in complex with α1-antitrypsin” (Scientific Reports, 2021)", "key": {"[1]": {"system": "Escherichia coli K-12 (MG1655)", "assay": "Antimicrobial (bactericidal) activity against E. coli, effect of serum or serum proteins", "assay_type": "cell-based", "conditions": "5% (v/v) FBS in PBS, 37 °C; remaining viable cells (cfu)", "experimental": "The Gram-negative bacteria Escherichia coli K-12 (MG1655) was cultured and plated in/on Luria–Bertani broth/agar plate (Merck Millipore, Darmstadt, Germany). The Gram-positive Staphylococcus aureus (ATCC 6538P) was cultured and plated in tryptic soy broth/agar (BD, MD, USA). The fungus Candida albicans (ATCC 14,053) was cultured and plated in YM broth/agar (BD, MD, USA). The bacteria were grown overnight, washed, and diluted 1:2000 in phosphate buffered saline (PBS), pH 7.5 or DMEM (Life Biotech, California, USA), pH 7.4. Bacteria (ca. 1 × 10^6 colony-forming units, cfu) were mixed with antimicrobial peptides (AMP) in 100 μl PBS and incubated at 37 °C (for bacteria) and at 30 °C (for fungus). Serial dilutions of each AMP-treated bacteria in PBS/DMEM supplemented with FBS were prepared and plated for the determination of remaining viable cells (expressed as cfu). At least three independent experiments were performed for each assay to determine the average value with standard deviation. MBC was defined as the lowest AMP concentration that kills 99.9% of the original inoculum."}, "[2]": {"molecular_target": "T1, protein D (albumin and α1-antitrypsin complex) (Bos taurus, UniProt P02769+P34955)", "T1 construct": "The active components were further purified by fast performance liquid chromatography (FPLC) Mono Q and S12 column chromatography from the 70% saturated fraction; from tissue; host or cells: fetal bovine serum (70% ammonium sulfate fraction, FPLC Mono Q and Superose 12)", "T1 sequence (P02769 25-607, one chain of several)": "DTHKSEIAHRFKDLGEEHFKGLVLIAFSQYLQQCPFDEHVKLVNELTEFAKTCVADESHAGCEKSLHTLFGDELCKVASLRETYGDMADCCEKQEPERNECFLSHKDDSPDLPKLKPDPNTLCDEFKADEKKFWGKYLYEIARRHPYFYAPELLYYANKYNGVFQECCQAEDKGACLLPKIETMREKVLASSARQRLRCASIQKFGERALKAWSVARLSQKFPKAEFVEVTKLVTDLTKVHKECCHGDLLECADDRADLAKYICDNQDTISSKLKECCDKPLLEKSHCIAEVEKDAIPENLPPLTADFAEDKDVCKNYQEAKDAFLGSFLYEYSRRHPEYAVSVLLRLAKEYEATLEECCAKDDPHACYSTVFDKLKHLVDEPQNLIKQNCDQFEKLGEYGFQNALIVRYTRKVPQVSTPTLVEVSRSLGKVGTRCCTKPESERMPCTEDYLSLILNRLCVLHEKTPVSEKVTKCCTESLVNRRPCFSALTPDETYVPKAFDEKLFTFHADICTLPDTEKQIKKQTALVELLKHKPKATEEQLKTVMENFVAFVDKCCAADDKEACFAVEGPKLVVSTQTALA", "assay": "Band shift of AMPs by protein D", "assay_type": "binding, bovine", "conditions": "AMP 4 μg; protein 10 μg (Suppl. Fig. 3a); PC buffer, room temperature, 30 min; 8% horizontal native PAGE"}, "fetal bovine serum (FBS)": {"system": "fetal bovine serum (FBS)", "assay": "Band shift of AMPs by fetal bovine serum", "assay_type": "binding", "conditions": "10–40% FBS; AMP 4 μg; PC buffer, room temperature, 30 min; horizontal native 8% PAGE", "experimental": "(§1) Various AMPs (4 μg each) were incubated with fetal bovine serum (FBS) components at room temperature in 10 μl PC buffer for 30 min and subjected to horizontal native 8% PAGE, pH8.0 or pH8.8, and Coomassie Blue staining."}, "Apo-AI": {"system": "Apo-AI", "conditions": "cited from earlier work", "source_text": "In addition to protein D, the serum protein apolipoprotein AI (Apo-AI) was also pulled down from crude fetal bovine serum by immobilized TP4-A12I,A15I, but in a less amount (Fig. 2a). The Apo-AI with Mr = 28,080 Da is the major constituent of high-density lipoprotein (HDL), which is involved in the removal of cholesterol from peripheral tissues and its catabolism. […] The amount of Apo-A1 in fetal bovine serum was much less than that of protein D (Fig. 8a, b). Int ..."}, "[3]": {"molecular_target": "T2, protein B (α1-antitrypsin) (Bos taurus, UniProt P34955)", "T2 sequence (P34955 25-416)": "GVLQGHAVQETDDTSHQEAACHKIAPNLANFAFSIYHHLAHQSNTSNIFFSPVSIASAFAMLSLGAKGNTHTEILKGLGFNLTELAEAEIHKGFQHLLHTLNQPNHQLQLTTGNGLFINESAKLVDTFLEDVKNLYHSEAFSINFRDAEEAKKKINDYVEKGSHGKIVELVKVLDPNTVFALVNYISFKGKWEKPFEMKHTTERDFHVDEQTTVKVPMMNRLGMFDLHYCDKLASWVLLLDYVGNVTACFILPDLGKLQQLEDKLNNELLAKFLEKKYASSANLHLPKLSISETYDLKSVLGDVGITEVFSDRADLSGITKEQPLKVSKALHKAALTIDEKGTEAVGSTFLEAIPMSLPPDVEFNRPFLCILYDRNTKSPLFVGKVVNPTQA", "assay": "Band shift of AMPs by protein B", "assay_type": "binding, bovine", "design": "The homogeneities of collected protein A (albumin), protein B (α1-antitrypsin), protein C (serotransferrin) and protein D complex; from tissue; host or cells: fetal bovine serum (70% ammonium sulfate fraction, FPLC Mono Q)", "conditions": "AMP 4 μg; protein 10 μg (Suppl. Fig. 3a); PC buffer, room temperature, 30 min; 8% horizontal native PAGE", "experimental": "as §1"}}, "data": [{"substance": "LL37: human AMP LL37 [reference compound]", "values": [{"measurement": "effect of FBS on antimicrobial activity against E. coli", "setting": "[1]", "value": "serum-mediated repression"}, {"measurement": "binding to protein D (band shift)", "setting": "[2]", "value": "also bound by protein D"}, {"measurement": "mobility of AMP in band shift assay with FBS", "setting": "fetal bovine serum (FBS)", "value": "retarded"}, {"measurement": "effect of Apo-AI on antimicrobial and cytotoxic activities", "setting": "Apo-AI", "value": "inhibits its antimicrobial and cytotoxic activities"}, {"measurement": "binding to protein B (band shift)", "setting": "[3]", "value": "not by protein A and protein B"}]}]}
